{
  "source": "patent US20210363241A1",
  "about": "(Eli Lilly, published 2021)",
  "binders": {"B1": {"name": "Antibody 1 (antibody, human IgG1, kappa, V domains shown)", "VH": "not shown", "VL": "VIWMTQSPSSLSASVGDRVTITCRASQSISSYLNWYQQKPGKAPRLLIYRASTLQSGVPSRFSGDGSGTHFTLTISSLQPEDFATYYCQQSYSTPDTFGQGTKVEIKR", "notes": "also called anti-human CD226 agonist antibody; human anti-human CD226 IgG1-effector null (IgG1-EN) antibody"}},
  "key": {"[1]": {"biological_target": "T1, Human CD226 on the cell surface of stably transfected HEK 293 cells (human, UniProt Q15762 19-336)", "T1 sequence": "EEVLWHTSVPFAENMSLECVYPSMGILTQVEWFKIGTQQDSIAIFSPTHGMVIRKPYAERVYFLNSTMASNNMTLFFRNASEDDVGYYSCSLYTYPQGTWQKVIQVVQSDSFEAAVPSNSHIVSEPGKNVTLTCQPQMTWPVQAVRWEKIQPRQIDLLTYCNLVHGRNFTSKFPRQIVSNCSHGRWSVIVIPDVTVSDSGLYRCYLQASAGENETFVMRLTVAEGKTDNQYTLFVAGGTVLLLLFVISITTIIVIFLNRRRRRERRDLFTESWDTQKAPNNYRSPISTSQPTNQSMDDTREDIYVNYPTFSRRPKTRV", "experiment": "cell-based or functional assay"}, "[2]": {"biological_target": "T2, Recombinant human CD226-Fc fusion protein (R&D Systems) (human)", "T2 construct": "The reagent was bought from R&D Systems; also called Human CD226-ECD-Fc; Human CD226-Extracellular Domain-Fc", "experiment": "ELISA, plate coated with human CD226-Fc, anti-human F(ab')2-HRP detection", "protocol": "The ability of the antibodies disclosed herein to bind human CD226 can be measured by ELISA. To measure binding to human CD226, a 96-well plate (Immulon 2HB) is coated with human CD226-Fc (R&D Systems) overnight at 4° C. Wells are blocked for 2 h with blocking buffer (PBS containing 1% bovine serum albumin). Wells are washed three times with PBS containing 0.1% Tween-20. Antibody 1 or control IgG (100 μL) is then added at different concentrations and incubated at room temperature for 1 h. After washing, the plate is incubated with 100 μL of goat anti-human IgG F(ab′)2-HRP conjugate (Jackson Immuno Research Laboratories) at room temperature for 45 minutes. The plates are washed and then incubated with 100 μL of 3,3′, 5,5′-tetra-methylbenzidine. The absorbance at 450 nm is read on a SpectraMax® microplate reader. The half maximal effective concentration (EC50) is calculated using GraphPad Prism 7 software."}, "[3]": {"biological_target": "T1, Human CD226 on the cell surface of …", "experiment": "flow cytometry on HEK 293 cells expressing human CD226, antibody at 0.14 ug/mL", "protocol": "(§1) The ability of the antibodies disclosed herein to bind to cell surface Human CD226 can be measured using a flow cytometric assay. Human CD226 expressing stable cells are generated by transfecting human-CD226 plasmid DNA into human HEK 293 cells (ATCC) using Fugene-6 reagent (Promega) according to the manufacturer's protocol. Stable cells are selected using 0.5 μg/mL puromycin in Dulbecoo's Modified Eagle's Medium containing 10% fetal bovine serum and 1% GlutaMAX™. For flow cytometry, confluent adherent cells are detached using Gibco® Cell Dissociation Buffer (Life Technologies), washed with complete media, then resuspend in FACS buffer (phosphate buffered saline containing 2.5% fetal bovine serum+1 mM EDTA) and then transferred into a 96 well V bottom plate at a density of 5×10⁴ cells/well. […]\n(§2) After washing in FACS buffer, secondary antibody allophycocyanin (APC) conjugated goat anti-human IgG, F(ab′)2 fragment specific antibody (Jackson ImmunoResearch Laboratories) is added at a 1:200 dilution and cells are incubated at room temperature for 30 minutes. […] Flow cytometry data is analyzed using FlowJo® Software. Median fluorescence intensity (MFI) ratio is calculated as the (MFI of Experimental antibody)/(MFI of the control IgG)."}, "[4]": {"biological_target": "T3, Cynomolgus monkey CD226 on the cell surface of stably transfected HEK 293 cells (cynomolgus monkey, UniProt A0A2K5W1Z6 19-336)", "T3 construct": "whole, on cells; also called Cyno-CD226", "T3 sequence": "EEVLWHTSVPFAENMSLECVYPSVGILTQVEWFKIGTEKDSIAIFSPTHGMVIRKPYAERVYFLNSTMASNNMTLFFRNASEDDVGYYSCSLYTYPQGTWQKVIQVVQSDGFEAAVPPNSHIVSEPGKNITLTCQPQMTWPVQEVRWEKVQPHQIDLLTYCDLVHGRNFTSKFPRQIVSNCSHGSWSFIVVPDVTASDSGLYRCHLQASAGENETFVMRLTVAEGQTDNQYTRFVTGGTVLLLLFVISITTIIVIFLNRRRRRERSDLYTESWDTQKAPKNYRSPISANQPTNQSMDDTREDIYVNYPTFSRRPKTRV", "experiment": "flow cytometry on HEK 293 cells expressing cynomolgus CD226, antibody at 0.14 ug/mL", "protocol": "as §1, with “surface cynomolgus monkey” for “surface Human”, “assay. Cynomolgus monkey” for “assay. Human”, “transfecting Cyno-CD226” for “transfecting human-CD226”\nas §2"}, "[5]": {"biological_target": "T2, Recombinant human CD226-Fc fusion …", "experiment": "SPR (Biacore T200), human CD226-Fc amine-coupled to chip, antibody injected at 1.95-1000 nM, 25 C, steady state fit", "protocol": "A Biacore T200 instrument can be used to measure the kinetics of immobilized human CD226-Fc binding to Antibody 1. Recombinant human CD226-Fc fusion protein (R&D Systems) is covalently immobilized to a CMS sensor chip via amine coupling (GE Healthcare). CD226 antibody testing is performed at a flow rate of 100 μL/min in HBS-EP+buffer. Samples are injected at various concentrations and measurements obtained at 25° C. The surface is regenerated after each sample injection with 10 mM Glycine-HCl pH 2.1 at flow rate of 10 μL/min for 30 seconds and then stabilized with buffer for 10 seconds. Sensorgrams of concentrations ranging from 1.95 nM to 1000 nM are evaluated using Biacore T200 software. The equilibrium dissociation constant (KD) or binding affinity constant is calculated from steady state fit. In experiments performed essentially as described above, Antibody 1 binds to human CD226 with the affinity constants illustrated in Table 2."}},
  "data": [
    {"binder": "B1", "values": [
      {"measurement": "NF-kB luciferase reporter EC50", "setting": "[1]", "result": 4.11, "unit": "nM"},
      {"measurement": "EC50", "setting": "[2]", "result": 0.1, "unit": "nM"},
      {"measurement": "MFI ratio (MFI of antibody / MFI of control IgG)", "setting": "[3]", "result": 851},
      {"measurement": "MFI ratio (MFI of antibody / MFI of control IgG)", "setting": "[4]", "result": 2920},
      {"measurement": "Kd", "setting": "[5]", "result": 334, "unit": "nM"}
    ]}
  ]
}
